2 molecules from PMC7968734 can be followed below.

This test has as its target replication protein A (RPA) heterotrimer, full-length (UniProt P15927). Kind of test: FluorIA.

B1: RAD52(1-303) (domain or fragment)
chain: MSGTEEAILGGRDSHPAAGGGSVLCFGQCQYTAEEYQAIQKALRQRLGPEYISSRMAGGGQKVCYIEGHRVINLANEMFGYNGWAHSITQQNVDFVDLNNGKFYVGVCAFVRVQLKDGSYHEDVGYGVSEGLKSKALSLEKARKEAVTDGLKRALRSFGNALGNCILDKDYLRSLNKLPRQLPLEVDLTKAKRQDLEPSVEEARYNSCRPNMALGHPQLQQVTSPSRPSHAVIPADQDCSSRSLSSSAVESEATHQRKLRQKQLQQQFRERMEKQQVRVSTPSAEKSEAAPPAPPVTHSTPVT
As for B1, the percent inhibition of EGFP-RAD52 binding at a molar ratio of 1:1 was found to be 50%.

B2: Full-length RAD52 tagged with 6X-His enhanced green fluorescent protein (EGFP-RAD52) (natural protein)
chain: MSGTEEAILGGRDSHPAAGGGSVLCFGQCQYTAEEYQAIQKALRQRLGPEYISSRMAGGGQKVCYIEGHRVINLANEMFGYNGWAHSITQQNVDFVDLNNGKFYVGVCAFVRVQLKDGSYHEDVGYGVSEGLKSKALSLEKARKEAVTDGLKRALRSFGNALGNCILDKDYLRSLNKLPRQLPLEVDLTKAKRQDLEPSVEEARYNSCRPNMALGHPQLQQVTSPSRPSHAVIPADQDCSSRSLSSSAVESEATHQRKLRQKQLQQQFRERMEKQQVRVSTPSAEKSEAAPPAPPVTHSTPVTVSEPLLEKDFLAGVTQELIKTLEDNSEKWAVTPDAGDGVVKPSSRADPAQTSDTLALNNQMVTQNRTPHSVCHQKPQAKSGSWDLQTYSADQRTTGNWESHRKSQDMKKRKYDPS
Molecule B2 displayed an RFU (NC, no inhibitor) of 17100 RFU.
